The assay deals with rhodopsin (bovine (endogenous in bovine retina)) (UniProt P02699).
Sequence of rhodopsin (bovine (endogenous in bovine retina)) (P02699 whole entry): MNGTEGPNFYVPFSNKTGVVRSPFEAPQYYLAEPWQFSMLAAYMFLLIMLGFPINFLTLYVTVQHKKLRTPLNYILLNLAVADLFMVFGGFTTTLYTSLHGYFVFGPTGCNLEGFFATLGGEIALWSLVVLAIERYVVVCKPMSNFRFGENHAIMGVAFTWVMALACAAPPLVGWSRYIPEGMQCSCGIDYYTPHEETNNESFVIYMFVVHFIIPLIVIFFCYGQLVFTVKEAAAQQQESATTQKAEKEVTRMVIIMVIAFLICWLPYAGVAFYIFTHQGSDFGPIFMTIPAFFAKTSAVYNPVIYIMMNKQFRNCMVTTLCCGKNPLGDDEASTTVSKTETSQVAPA

Sequence of transducin, heterotrimeric G protein (Gt) (P04695 whole entry): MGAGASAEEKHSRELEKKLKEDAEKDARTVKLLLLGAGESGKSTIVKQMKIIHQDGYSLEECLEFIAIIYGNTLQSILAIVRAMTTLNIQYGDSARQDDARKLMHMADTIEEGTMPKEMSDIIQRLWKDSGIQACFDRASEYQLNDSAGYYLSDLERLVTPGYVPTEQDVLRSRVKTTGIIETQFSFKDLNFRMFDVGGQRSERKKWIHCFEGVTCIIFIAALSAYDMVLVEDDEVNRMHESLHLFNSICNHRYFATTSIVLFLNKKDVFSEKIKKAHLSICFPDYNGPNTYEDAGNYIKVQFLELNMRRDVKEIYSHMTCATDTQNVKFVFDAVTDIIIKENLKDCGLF
Sequence of transducin, heterotrimeric G protein (Gt) (P62871 whole entry): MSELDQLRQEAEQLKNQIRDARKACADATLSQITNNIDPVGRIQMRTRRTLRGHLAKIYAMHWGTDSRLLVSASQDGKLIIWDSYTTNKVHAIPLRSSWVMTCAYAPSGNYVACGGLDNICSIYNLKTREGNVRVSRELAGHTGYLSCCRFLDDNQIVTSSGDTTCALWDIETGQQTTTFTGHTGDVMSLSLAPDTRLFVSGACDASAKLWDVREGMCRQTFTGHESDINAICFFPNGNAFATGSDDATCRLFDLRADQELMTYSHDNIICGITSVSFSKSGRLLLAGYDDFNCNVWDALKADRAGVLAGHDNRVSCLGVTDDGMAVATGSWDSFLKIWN
Sequence of transducin, heterotrimeric G protein (Gt) (P02698 whole entry): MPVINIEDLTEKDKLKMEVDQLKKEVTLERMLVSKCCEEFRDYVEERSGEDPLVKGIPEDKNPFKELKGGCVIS

For “transducin, heterotrimeric G protein (Gt) (from UniProt P04695 1-350; P62871 1-340; P02698 1-74) (complex)”, the ratio Gt•GDP:Gt by native MS with 90 μM compound 1, ROS membrane present, from dark (1.2) to 15 s of illumination (0.6) (ratio Gt•GDP:Gt) came to 1.2; the ratio Gt•GDP:Gt by native MS with 90 μM compound 6, ROS membrane present, from dark (2.0) to 15 s of illumination (0.8) (ratio Gt•GDP:Gt) came to 2; the ratio Gt•GDP:Gt by native MS, control without compound, ROS membrane present, from dark (4.1) to 15 s of illumination (1.2) (ratio Gt•GDP:Gt) was found to be 4.1.
